From patent publication US20090305973A1, “NOVEL PEPTIDE AND USE THEREOF” (priority 2006, published 2009)
Where no end group is shown, it is not given here.

B1: AIMP1-(114-192): recombinant deletion mutant of AIMP1, expressed as GST-tag fusion protein (protein, UniProt Q12904 114-192, looked up, fragment)
chain: KGGTGDEKKAKEKIEKKGEKKEKKQQSIAGSADSKPIDVSRLDLRIGCIITARKHPDADSLYVEEVDVGEIAPRTVVSG
modifications: GST tag
notes: recombinant deletion mutant of AIMP1, expressed as GST-tag fusion protein
B2: AIMP1-(1-192): recombinant deletion mutant of AIMP1, expressed as GST-tag fusion protein (protein, listed as Homo sapiens)
chain: MANNDAVLKRLEQKGAEADQIIEYLKQQVSLLKEKAILQATLREEKKLRVENAKLKKEIEELKQELIQAEIQNGVKQIAFPSGTPLHANSMVSENVIQSTAVTTVSSGTKEQIKGGTGDEKKAKEKIEKKGEKKEKKQQSIAGSADSKPIDVSRLDLRIGCIITARKHPDADSLYVEEVDVGEIAPRTVVSG
modifications: GST tag fusion; PEPTIDE (1)..(192) AIMP1-(1-192)
notes: as for B1
B3: AIMP1-(47-192): recombinant deletion mutant of AIMP1, expressed as GST-tag fusion protein (protein, UniProt Q12904 47-192, looked up, fragment)
chain: KLRVENAKLKKEIEELKQELIQAEIQNGVKQIPFPSGTPLHANSMVSENVIQSTAVTTVSSGTKEQIKGGTGDEKKAKEKIEKKGEKKEKKQQSIAGSADSKPIDVSRLDLRIGCIITARKHPDADSLYVEEVDVGEIAPRTVVSG
modifications: GST tag
notes: as for B1
B4: AIMP1-(54-192): recombinant deletion mutant of AIMP1, expressed as GST-tag fusion protein (protein, UniProt Q12904 54-192, looked up, fragment)
chain: KLKKEIEELKQELIQAEIQNGVKQIPFPSGTPLHANSMVSENVIQSTAVTTVSSGTKEQIKGGTGDEKKAKEKIEKKGEKKEKKQQSIAGSADSKPIDVSRLDLRIGCIITARKHPDADSLYVEEVDVGEIAPRTVVSG
modifications: GST tag
notes: as for B1
B5: AIMP1-(6-192): recombinant deletion mutant of AIMP1, expressed as GST-tag fusion protein (protein, listed as Homo sapiens)
chain: AVLKRLEQKGAEADQIIEYLKQQVSLLKEKAILQATLREEKKLRVENAKLKKEIEELKQELIQAEIQNGVKQIAFPSGTPLHANSMVSENVIQSTAVTTVSSGTKEQIKGGTGDEKKAKEKIEKKGEKKEKKQQSIAGSADSKPIDVSRLDLRIGCIITARKHPDADSLYVEEVDVGEIAPRTVVSG
modifications: GST tag fusion; PEPTIDE (1)..(187) AIMP1-(6-192)
notes: as for B1
B6: AIMP1-(193-312): recombinant deletion mutant of AIMP1, expressed as GST-tag fusion protein (protein, UniProt Q12904 193-312, looked up, fragment)
chain: LVNHVPLEQMQNRMVILLCNLKPAKMRGVLSQAMVMCASSPEKIEILAPPNGSVPGDRITFDAFPGEPDKELNPKKKIWEQIQPDLHTNDECVATYKGVPFEVKGKGVCRAQTMSNSGIK
modifications: GST tag
notes: as for B1
B7: AIMP1-(1-312): full-length ARS-interacting multi-functional protein 1 consisting of 312 amino acids (protein, listed as Homo sapiens)
chain: MANNDAVLKRLEQKGAEADQIIEYLKQQVSLLKEKAILQATLREEKKLRVENAKLKKEIEELKQELIQAEIQNGVKQIAFPSGTPLHANSMVSENVIQSTAVTTVSSGTKEQIKGGTGDEKKAKEKIEKKGEKKEKKQQSIAGSADSKPIDVSRLDLRIGCIITARKHPDADSLYVEEVDVGEIAPRTVVSGLVNHVPLEQMQNRMVILLCNLKPAKMRGVLSQAMVMCASSPEKIEILAPPNGSVPGDRITFDAFPGEPDKELNPKKKIWEQIQPDLHTNDECVATYKGVPFEVKGKGVCRAQTMSNSGIK
B8: AIMP1-(30-192): recombinant deletion mutant of AIMP1, expressed as GST-tag fusion protein (protein, UniProt Q12904 30-192, looked up, fragment)
chain: SLLKEKAILQATLREEKKLRVENAKLKKEIEELKQELIQAEIQNGVKQIPFPSGTPLHANSMVSENVIQSTAVTTVSSGTKEQIKGGTGDEKKAKEKIEKKGEKKEKKQQSIAGSADSKPIDVSRLDLRIGCIITARKHPDADSLYVEEVDVGEIAPRTVVSG
modifications: GST tag
notes: as for B1
B9: AIMP1-(101-192): recombinant deletion mutant of AIMP1, expressed as GST-tag fusion protein (protein, UniProt Q12904 101-192, looked up, fragment)
chain: AVTTVSSGTKEQIKGGTGDEKKAKEKIEKKGEKKEKKQQSIAGSADSKPIDVSRLDLRIGCIITARKHPDADSLYVEEVDVGEIAPRTVVSG
modifications: GST tag
notes: as for B1

Experiments:
[1] = tested on: Human foreskin fibroblast cells; test: Fibroblast proliferation, tritium-labeled thymidine incorporation; format: cell-based; details: for activity of inducing the proliferation of fibroblast cells: 100 nM, 12 hours, incorporated thymidine
Description: (§1) Human foreskin fibroblast cells (MC1232 obtained from MIT), U2OS cells (ATCC HTB-96) and bovine aorta endothelial cells (hereinafter, referred to as “BAECs”) were treated with the AIMP1 fragments cleaved by elastase 2 in Test Example <1-1>, and the effects of the AIMP1 fragments on the proliferation of the cells were examined.
(§2) Bovine aorta endothelial cells (BAECs) were isolated from bovine descending thoracic aorta and cultured in Dulbecco's modified Eagle's medium (DMEM) containing 20% FBS at 37° C. in a 5% CO2 atmosphere. The foreskin fibroblast cells and the U2OS cells were cultured in DMEM with 10% FBS and 1% antibiotic. Each of the cultured cell lines (5×10^3 cells) was cultivated in a 24-well dish for 12 hours and then subjected to serum-starved culture for 3 hours. Next, 100 nM of a full-length AIMP1 or fragments of AIMP1 cleaved with an enzyme were added to each well and cultivated for 12 hours. The control group was without the testing agents. After completion of the cultivation, tritium-labeled thymidine (1 μCi/well) was added to each well, and the cells were additionally cultured at 37° C. for 4 hours. The cultured cells were washed with PBS three times and fixed with 5% TCA for 10 minutes, followed by washing again with PBS three times. The cells were lysed with 0.5N NaOH, and the incorporated thymidine was quantified with a liquid scintillation counter.
In order to examine the fibroblast proliferation activities of the recombinant proteins constructed in Example 1, foreskin fibroblast cells were treated with each of the recombinant proteins in the same manner as in Test Example <1-2>, and the proliferation of the fibroblast cells was examined.
Whether the AIMP1-(6-46) fragment synthesized in Example <3-1> stimulates the proliferation of fibroblast cells was examined in the same manner as in Test Example <1-2>. Herein, the AIMP1-(6-46) fragment was used at various concentrations ([…]), and 100 nM of the full-length AIMP1 (AIMP1-(1-132)) was used as a control.

[2] = tested on: C57BL/6 mice; test: In vivo wound healing (wound closure) of excised back skin wound; details: 200 nM in PBS containing 20% glycerol, applied to wound twice a day until day 8, 0.5 cm-diameter back wound
Description: AIMP1-(14-34) (SEQ ID NO: 6) and AIMP1-(26-46) (SEQ ID NO: 7) fragments smaller than the AIMP1-(6-46) fragment synthesized in Example 3 were synthesized by a chemical synthetic method in Peptron (http://www.peptron.co.kr), and the wound healing-promoting activities thereof were analyzed in vivo. The analysis of the wound healing activities was performed using 8-week-old C57BL/6 mice. The mice were anesthetized with an intraperitoneal injection of 2.5% avertin (100 μl/10 g), and then the back of each animal was shaved, followed by disinfecting the back skin with 70% alcohol. The back skin was marked with a 0.5 cm-diameter circle, and a skin and panniculus carnosus muscle was removed with scissors to induce a wound. The wounds were left uncovered without a dressing. One wound was generated per mouse and treated with 200 nM of each of AIMP1-(14-34), AIMP1-(26-46) and AIMP1-(6-46) fragments in PBS (phosphate-buffered saline) containing 20% glycerol, twice a day at 12-hour intervals until day 8 after wounding. A control group was treated only with PBS containing 20% glycerol. Then, wound closure was monitored daily using the Image-pro Plus software and was calculated as the percentage of the initial wound area.

[3] = tested on: bovine aorta endothelial cells; test: Endothelial cell proliferation, tritium-labeled thymidine incorporation; format: cell-based; details: 100 nM, 12 hours, BAECs, incorporated thymidine
Description: as §1, §2

Row | Molecule | activity of inducing the proliferation of fibroblast cells ([1]; foreskin fibroblast cells) | other results
1 | AIMP1-(1-46): recombinant deletion mutant of AIMP1, expressed as GST-tag fusion protein (MANNDAVLKRLEQKGAEADQIIEYLKQQVSLLKEKAILQATLREEK; also: GST tag fusion, end not given here; listed as Homo sapiens) | high proliferation-inducing activity | 
2 | AIMP1-(1-53): recombinant deletion mutant of AIMP1, expressed as GST-tag fusion protein (MANNDAVLKRLEQKGAEADQIIEYLKQQVSLLKEKAILQATLREEKKLRVENA; also: GST tag fusion, end not given here; listed as Homo sapiens) | high proliferation-inducing activity | 
3 | AIMP1-(14-34): 21-amino-acid fragment of AIMP1-(6-46), chemically synthesized (KGAEADQIIEYLKQQVSLLKE; PEPTIDE (1)..(21) AIMP1-(14-34); listed as Homo sapiens) |  | activity of promoting wound healing (wound closure as percentage of the initial wound area) [2]: had the activities of promoting wound healing
4 | AIMP1-(26-46): 21-amino-acid fragment of AIMP1-(6-46), chemically synthesized (KQQVSLLKEKAILQATLREEK; PEPTIDE (1)..(21) AIMP1-(26-46); listed as Homo sapiens) |  | activity of promoting wound healing (wound closure as percentage of the initial wound area) [2]: had the activities of promoting wound healing
5 | NH2-AVLKRLEQKGAEADQIIEYLKQQVSLLKEKAILQATLREEK-COOH (H-AVLKRLEQKGAEADQIIEYLKQQVSLLKEKAILQATLREEK-OH; listed as Homo sapiens) [AIMP1-(6-46), peptide corresponding to amino acids 6-46 of AIMP1, expressed in E. coli] |  | proliferation of fibroblast cells, dose dependence ([1]; concentrations 0, 50, 100 and 200 mM (so in the source), foreskin fibroblast cells): induced the proliferation of fibroblast cells in a dose-dependent manner; fibroblast proliferation activity compared with full-length AIMP1 at the same concentration ([1]; control 100 nM full-length AIMP1): almost similar to the full-length AIMP1; activity of promoting wound healing (wound closure as percentage of the initial wound area) [2]: had the activities of promoting wound healing
6 | B1 | did not | 
7 | B2 | high proliferation-inducing activity | 
8 | B3 | did not | 
9 | B4 | did not | 
10 | B5 | high proliferation-inducing activity | 
11 | B6 | did not | 
12 | B7 | high proliferation-inducing activity | activity of inhibiting the proliferation of endothelial cells [3]: inhibiting the proliferation of endothelial cells
13 | B8 | did not | 
14 | B9 | did not | 
